# According to the nanobody polyreactivity screen of Harvey et al. (2022):
# Experiment: yeast display, Sf9 membrane polyspecificity reagent, FACS + sequencing; frameworks hold sequencing errors
# In short: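 Sorting gates, low and high (top ~1%), were placed on anti-HA fluorescence to track expression and on streptavidin fluorescence to track reagent binding. A clone's polyreactivity label is taken from the gate it came out of. The reagent was 10% biotinylated, detergent-solubilized Sf9 membrane, applied for 1 hour at 4 °C to galactose-induced yeast display cells.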
row,Sequence,polyreactivity (PSR sort gate)
1,QVQLVESGGGLVQAGGSLRLSCAASGSIFGSYAMGWYRQAPGKEREFVAGIDQSGSSTYYADSVKGRFTISRDNAKNTVYLQMNSLKPEDTAVYYCNAVWYFYSTYRKYYYWGQGTQVTVSS,high polyreactivity
2,QVQLVESGGGLVQAGGSLRLSCAASGSIFGSYAMGWYRQAPGKERELVAAISGSGGRTYYADSVKGRFTISRDNAKNTVYFQMNSLKPEVTAVYYCAAAYPRVTYKYGYYWGLGTQVTVSS,high polyreactivity
3,QVQLVESGGGLVQAGGSLRLSCAASGSIFGSYAMGWYRQAPGKERELVADISRRGSSTYYADSVKGRFTISRDNAKNTVYLQMNSLKPEDTAVYYCNKVFARSLSSRYQAYDYWGQGTQVNVSS,high polyreactivity
4,QVQLVESGGGLVQAGGSLRLSCAASGSIFGSYAMGWYRQAPGKERELVAVITSASTNYADSVKGRFTISRDNAKNTVYLQMNSLKPEDTAVYYCNAALSHDFWNYRLGYWGQGTQVTVSS,low polyreactivity
5,QVQLVESGGGLVQAGGSLRLSCAASGSIFGSYAMGWYRQATGNERELVAAIRSSASTYYADSVKGRFTISRDNAKNTVYLQMYSLKPEDTAVYYCAAKFTSYGRSRYYSWGQGTQVTVSS,high polyreactivity
6,QVQLVESGGGLVQAGGSLRLSCAASGSIFGSYTMGWYRQAPGKERELVAAISLGGGSTYYADSVKGRFSISRDNAKNTVYLQMNSLKPEDTAVYYCAAGFTYPYDYWGQGTQVTVSS,low polyreactivity
7,QVQLVESGGGLVQAGGSLRLSCAASGSIFGSYVMVWYRQAPGKERELVAAISKSGGRTYYADSVKGRFTISRDNAKNTVYLQMKSLKPEDTAVYYCAVLPRVKDGTGGDYWGQGTQVTVSS,high polyreactivity
8,QVQLVESGGGLVQAGGSLRLSCAASGSIFGTNAMGWYRQAPGKERELVAAINSGGSTNYADSVKGRFTISRDNAKNTVYLQMNSLKPEDTAVYYCAADEGLWSPSRNAYDYDYWGQGTQVSVSS,low polyreactivity
9,QVQLVESGGGLVQAGGSLRLSCAASGSIFGTNGMGWYRQAPGKERELVAAITRRGGSTYADSVKGRFTISRDNAKNTVYLQMNSLKPEDTAVYYCAAQGYLRLRTHFNYWGQGTQVTVSS,low polyreactivity
10,QVQLVESGGGLVQAGGSLRLSCAASGSIFGTYAMGWYRPAPGNERELVAAITWRDDGNTYYADSVQGRFTISRDNAKNTVYLQMNSLQPEDTAVYYGAASRAYGKDAYRGYSYRYDYWGQGTQGTVSS,high polyreactivity
11,QVQLVESGGGLVQAGGSLRLSCAASGSIFGTYAMGWYRQAPGKERELVAAITSSGGSTYYADSVKGRFTISRDNAKNTVYLQMNSLKPEDTAVYYCAAYRRIRVGVPVRTYYYWGQGTQVTVSS,high polyreactivity
12,QVQLVESGGGLVQAGGSLRLSCAASGSIFGVNALGWYRQAPGKERELVASITGGDSTNYADSVKGRFTISRDNAKNTVYLQMNSLKPEDTAFYYCAKDHYYRYEEGDYWGQGTQVTVSS,low polyreactivity
13,QVQLVESGGGLVQAGGSLRLSCAASGSIFGVNVMGWYRQAPGKERELVASISGGGSTDYADSVKGRFTISRDNAKNTVYLQMNSLKPEDTAVYYCNAKYWWSNYYWGQGTQVTVSS,low polyreactivity
14,QVQLVESGGGLVQAGGSLRLSCAASGSIFGVYAMGWYRQAPGKEREFVASISWSAGSTYYADSVKGRFTISRDNAKNTVYLQMNSLKPEDTAVYYCAARVWRYPYYWGQGTQVTVSS,high polyreactivity
15,QVQLVESGGGLVQAGGSLRLSCAASGSIFGVYAMGWYRQAPGKERELVAAISSRGSSTYYADSVKGRFTISRDNAKNTVYLQMNSLKPEDTAVYYCAARPGIRSYPPGYGYWGQGTQVTVSS,high polyreactivity
16,QVQLVESGGGLVQAGGSLRLSCAASGSIFGVYAMGWYRQAPGKERELVATISRSGAITYYADSVKGRFTISRDNAKNTVYLQMNSLKPEDTAVYYCAADFFSRDWGQGTQVTVSS,low polyreactivity
17,QVQLVESGGGLVQAGGSLRLSCAASGSIFGVYTMGWYRQAPGKERELVAAISRNGGSTYYEDSVKGRFTISRDNAKNTVYLQMNSLKPEDTAVYYCATSTSRRYGSRHNYWGQGTQVTVSS,high polyreactivity
18,QVQLVESGGGLVQAGGSLRLSCAASGSIFGWYAMGWYRQAPGKEREFVAAISGGSTYYADSVKGRFTISRDNAKNTVYLQMNSLKPEDTAVYYCNAQGYYFYPFDYWGQGTQVTVSS,high polyreactivity
19,QVQLVESGGGLVQAGGSLRLSCAASGSIFGWYAMGWYRQAPGKERELVAAAIDYRDDSTYYADSVKGRFTISRDIAKNTVYLQMNSLKPEDTAVYYCAAEKDGDWRGYDYWGQGTQVTVSS,low polyreactivity
20,QVQLVESGGGLVQAGGSLRLSCAASGSIFGWYAMGWYRQAPGKERELVAAISSSDGSTYYADSVKGRFTISRDNANNTVYFPMNSLKPEDTEVYYCATDYAFTYAQYDYWGQGTQVTVSS,low polyreactivity
21,QVQLVESGGGLVQAGGSLRLSCAASGSIFGYAMGWYRQAPGKERELVAAIRWGGGSTYYADSVKGRFTISRDNAKYNVYLQMNSLKPEDTAVYYCAARVGRQWYDYWGQGTQVTVSS,high polyreactivity
22,QVQLVESGGGLVQAGGSLRLSCAASGSIFGYKAMGWYRQAPRKERELVAAIRSSDSRTHYADSVKGRFTISRDNAKNTVYLQMNRLKPEDTAVYYCAAVKRRPGHYLYDYWGQGTQVTVSS,low polyreactivity

row,Sequence,polyreactivity (PSR sort gate)
1,QVQLVESGGGLVQAGGSLRLSCAASGSIFGYNAMGWSRQAPGKERELVAGITSGTSTNYADSVKGRFTISRDNAKNTVYLQMNSLKPEDTEVYYCARTSYRFYRKRYYWGQGTQVTVSS,high polyreactivity
2,QVQLVESGGGLVQAGGSLRLSCAASGSIFGYNAMGWYRQAPGKERELVAAISRSGGRTYYADSVKGRFTISRDNAKNTVYLQMNSLKPEDTAVYDCAAPVWRYYRGKTFDYWGQGTQVTVSS,high polyreactivity
3,QVQLVESGGGLVQAGGSLRLSCAASGSIFGYNTMGLYRKAPGKERELVAAISYRGGSTYADSVKGRFTISRDNAKNTVYLQMNSLKPVDTAVYYCDKRSIVGYRYSGYDYCGQGTQVTVSS,high polyreactivity
4,QVQLVESGGGLVQAGGSLRLSCAASGSIFGYNVMGWYRQAPGKEREFVAAITYRGGGTYADSVKGRFTISRDNAKNTVYLQMNSLKPEDTAVYYCAARWYGWRSRRYDYWGQGTQVTVSS,high polyreactivity
5,QVQLVESGGGLVQAGGSLRLSCAASGSIFGYYAKGWYRQAPGKERELVAAIDSGGGSTYYADSVRGRVTISRDNAKNTVYIQMNRLKPEDTAVYYCAAVSYSYPSLLYEYWGQGTQVTVSS,low polyreactivity
6,QVQLVESGGGLVQAGGSLRLSCAASGSIFGYYAMGWSRQAPGKERELVASISSTGSTYYADSVKGRFTISRDNAKNTVSLQMNSLKPEDTAVYYCAADTLIFPWGFESWGQGTQVTVSS,high polyreactivity
7,QVQLVESGGGLVQAGGSLRLSCAASGSIFGYYAMGWYIQAPGKERELVAAISWSGGSTYYADSVKGRFTISRDNAKNTVYLQMNSLKPEDTAVYYCNAYTRRGGHDYWGQGTQVTVSS,high polyreactivity
8,QVQLVESGGGLVQAGGSLRLSCAASGSIFGYYAMGWYRQAPGKERELVAAIRGSSGSTYYADSVKGRFTISRDNAKNTVYLQMNSLKPEDTAVYYCAADYRTYVYVYGFRHFDYWGQGTQVTVSS,low polyreactivity
9,QVQLVESGGGLVQAGGSLRLSCAASGSIFGYYAMGWYRQAPGKERELVAAITTRGGRTYYADSVKGRFTISRDNAKNTVYLQMNSLKPEDTAVYYCAARTGRGRYDYWGQGTQVTVSS,high polyreactivity
10,QVQLVESGGGLVQAGGSLRLSCAASGSIFGYYAMGWYRQAPGKERELVATITTRGARTYYADSVKGRFTISRDNAKNTVYLQMNSLKPEDTAVYYCAAYGYYNFGYYYWGQGTQVTVSS,high polyreactivity
11,QVQLVESGGGLVQAGGSLRLSCAASGSIFGYYAMGWYRQAPGKERELVAVITRDASTYYADSVKGRFTISRDNAKNTVDLQMNSLKPEDTAVYYCAADRWWRRSWVKLDYWGHGTQVTVSS,low polyreactivity
12,QVQLVESGGGLVQAGGSLRLSCAASGSIFGYYAMGWYRQAPGNERELVAAISRSGGSTYYADSVKGRFTISRDNAKNTVYLQMNSLKPEDTAVYYCAADDYPYGNYYWGQGTQVTVSS,high polyreactivity
13,QVQLVESGGGLVQAGGSLRLSCAASGSIFGYYGMGCYIQAPGKERELVAAISARGGSTYYADSVKGRFTISRDNAKNTVYFQMNRLKPEDTAVYYCAVRYPGSRYLISKNGYWGQGTQVTVSS,high polyreactivity
14,QVQLVESGGGLVQAGGSLRLSCAASGSIFGYYPMGWYRQAPGKERELVAAITSGGNTYYADSVKGRFTISRDNAKNTVYLQMNSLKPEDTAVYYCNAVWRTRDYDYWGQGTQVTVSS,low polyreactivity
15,QVQLVESGGGLVQAGGSLRLSCAASGSIFGYYTMGWYIQAPGKERELVARITRGGSTYYADSVKGRFTISRDNAKNTVYLQLNSLKPEDTAVYYCAARRVNAGWTYGLRGNYWGQGTQVTVSS,low polyreactivity
16,QVQLVESGGGLVQAGGSLRLSCAASGSIFHHNAMGWYRQAPGKERELVAAISSRSGNTYYADSVKGRFTISRDNAKNTVYLQMNSLKPEDTAVYYCAKAFRGHYWGQGTQVTVSS,high polyreactivity
17,QVQLVESGGGLVQAGGSLRLSCAASGSIFHIYAMGWYRQAPGKERELVAAMTYADSVKGRFTISRDNAKNTVYLQMNSLKPEDTAVYYCNADNWPRIHGSAYDYWGQGTQVTVSS,low polyreactivity
18,QVQLVESGGGLVQAGGSLRLSCAASGSIFHNYDMGLYRQAPGKEREMVADISRGGDTNYADSVKGRFTISRDNAKNTVYLQLNSLKPEDTAVYYCNATYWILDSPWWRETFAYWGQGTQVTVSS,low polyreactivity
19,QVQLVESGGGLVQAGGSLRLSCAASGSIFHPYTMGWYRQAPGKERELVAAISWSGGNTNYADSVKGRFTISRDNAKNTVYLQMNSLKPDDTAVYYCIKATNLSGGYDSWGLGTQVTVSS,low polyreactivity
20,QVQLVESGGGLVQAGGSLRLSCAASGSIFHRNAMGWYRQAPGKEREFVAAISWRGGSTYYADSVKGRFTISRDNAKNTVYLQMNSLKPEDTAVYYCAADPVGYYWSRRSEFYYWGQGTQVTVSS,high polyreactivity
21,QVQLVESGGGLVQAGGSLRLSCAASGSIFHRNAMGWYRQAPGKERELVATISSSTGSTNYADSVKGRFTISRDNAKNTVYLQMNSLKPEDTAVYYCAAAPHRHSWYYTRHPYFGMDYWGQGTQVTVSS,low polyreactivity
